Assay results reported in patent publication US20240182536A1 (MURAL ONCOLOGY, published 2024).
Where two headings read alike, the source gives them in different places.

T1: human IL-18 binding protein (IL-18BP) (human, UniProt O95998 31-194)
T1 construct: also called hu IL-18BP; hIL18BP
T1 sequence (looked up): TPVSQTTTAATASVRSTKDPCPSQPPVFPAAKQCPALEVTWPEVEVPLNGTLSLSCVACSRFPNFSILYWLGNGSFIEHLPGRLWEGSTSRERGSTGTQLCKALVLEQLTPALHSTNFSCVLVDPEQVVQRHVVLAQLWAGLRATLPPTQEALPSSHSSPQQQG

T2: IL-18 receptor (IL-18Rα and IL-18Rβ) (UniProt Q13478 19-541; O95256 20-599, limits assumed)
T2 sequence (looked up) 1: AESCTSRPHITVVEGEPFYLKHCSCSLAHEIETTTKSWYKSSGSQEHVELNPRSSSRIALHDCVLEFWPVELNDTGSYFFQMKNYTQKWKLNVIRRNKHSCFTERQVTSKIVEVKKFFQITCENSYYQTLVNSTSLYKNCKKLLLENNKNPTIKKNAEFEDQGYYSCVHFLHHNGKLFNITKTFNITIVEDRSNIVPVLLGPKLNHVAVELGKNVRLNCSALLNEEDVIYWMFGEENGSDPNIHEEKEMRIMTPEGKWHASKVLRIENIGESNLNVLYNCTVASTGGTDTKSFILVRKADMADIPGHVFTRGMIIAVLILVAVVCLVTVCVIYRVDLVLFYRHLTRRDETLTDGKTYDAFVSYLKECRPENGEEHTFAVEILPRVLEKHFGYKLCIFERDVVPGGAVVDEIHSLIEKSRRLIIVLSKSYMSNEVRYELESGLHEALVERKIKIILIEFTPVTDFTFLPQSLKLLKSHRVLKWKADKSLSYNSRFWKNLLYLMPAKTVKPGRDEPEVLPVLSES
T2 sequence (looked up) 2: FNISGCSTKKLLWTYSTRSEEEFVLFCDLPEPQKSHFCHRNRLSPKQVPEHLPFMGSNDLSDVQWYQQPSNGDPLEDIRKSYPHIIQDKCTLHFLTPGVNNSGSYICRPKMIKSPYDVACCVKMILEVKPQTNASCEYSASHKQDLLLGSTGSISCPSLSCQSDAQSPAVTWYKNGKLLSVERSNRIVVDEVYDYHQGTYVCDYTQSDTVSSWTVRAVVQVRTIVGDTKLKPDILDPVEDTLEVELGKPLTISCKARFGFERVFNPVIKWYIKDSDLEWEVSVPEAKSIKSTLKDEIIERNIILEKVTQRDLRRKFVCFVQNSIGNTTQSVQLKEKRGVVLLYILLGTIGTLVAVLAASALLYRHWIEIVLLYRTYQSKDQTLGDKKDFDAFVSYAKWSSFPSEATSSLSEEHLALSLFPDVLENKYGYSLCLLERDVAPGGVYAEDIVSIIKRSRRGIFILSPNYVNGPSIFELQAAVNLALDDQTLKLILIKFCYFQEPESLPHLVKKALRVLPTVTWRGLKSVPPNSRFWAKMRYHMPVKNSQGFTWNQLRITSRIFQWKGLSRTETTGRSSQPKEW

T3: IL-18 receptors on HEK-Blue IL-18 reporter cells (InvivoGen) (UniProt Q13478 19-541; O95256 20-599)
T3 sequence (looked up) 1: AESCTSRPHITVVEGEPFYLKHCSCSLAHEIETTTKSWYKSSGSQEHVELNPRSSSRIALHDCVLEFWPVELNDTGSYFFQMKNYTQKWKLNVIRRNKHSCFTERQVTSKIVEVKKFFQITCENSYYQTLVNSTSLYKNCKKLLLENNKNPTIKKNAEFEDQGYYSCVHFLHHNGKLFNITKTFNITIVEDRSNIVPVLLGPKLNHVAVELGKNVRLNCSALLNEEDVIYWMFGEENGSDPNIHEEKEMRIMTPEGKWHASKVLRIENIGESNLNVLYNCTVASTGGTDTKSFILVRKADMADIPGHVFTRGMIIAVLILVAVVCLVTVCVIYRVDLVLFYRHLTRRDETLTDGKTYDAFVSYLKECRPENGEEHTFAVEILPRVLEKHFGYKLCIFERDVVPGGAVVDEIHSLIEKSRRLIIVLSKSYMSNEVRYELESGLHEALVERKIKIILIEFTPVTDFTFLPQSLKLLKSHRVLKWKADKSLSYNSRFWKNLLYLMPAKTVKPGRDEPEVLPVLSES
T3 sequence (looked up) 2: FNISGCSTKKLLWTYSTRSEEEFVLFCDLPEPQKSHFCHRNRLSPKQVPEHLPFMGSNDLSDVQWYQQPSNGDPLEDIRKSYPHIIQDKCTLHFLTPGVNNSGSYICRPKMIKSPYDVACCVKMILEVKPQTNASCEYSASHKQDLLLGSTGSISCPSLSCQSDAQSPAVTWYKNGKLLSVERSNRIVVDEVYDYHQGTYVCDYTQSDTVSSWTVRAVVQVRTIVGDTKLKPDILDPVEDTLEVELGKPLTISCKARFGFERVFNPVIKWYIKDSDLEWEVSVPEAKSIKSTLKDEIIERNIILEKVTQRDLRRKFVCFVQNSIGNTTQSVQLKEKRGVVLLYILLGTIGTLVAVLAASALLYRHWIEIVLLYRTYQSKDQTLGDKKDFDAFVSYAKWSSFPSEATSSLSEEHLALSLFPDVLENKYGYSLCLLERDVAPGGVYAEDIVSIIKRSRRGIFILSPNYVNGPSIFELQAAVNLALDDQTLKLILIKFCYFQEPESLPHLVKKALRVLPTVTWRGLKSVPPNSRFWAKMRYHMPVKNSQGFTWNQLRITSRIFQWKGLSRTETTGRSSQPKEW

T4: interleukin 18 binding protein (IL-18BP) (UniProt O95998 31-194)
T4 sequence (looked up): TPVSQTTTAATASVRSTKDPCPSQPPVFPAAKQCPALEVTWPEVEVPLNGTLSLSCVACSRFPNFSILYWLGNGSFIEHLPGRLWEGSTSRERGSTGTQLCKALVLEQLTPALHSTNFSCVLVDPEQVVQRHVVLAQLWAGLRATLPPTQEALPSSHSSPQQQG


Legend:
[1] = target: T1, human IL-18 binding protein (IL-18BP); test: Octet BLI
Method: Octet 96red instrument was used to determine affinities of IL18 proteins to BP or receptors. 5-10 ug/ml analyte proteins were used for loading on Sartorius tips (AHC or SA). […] 120-180 s loading, 200 s association and 800 s dissociation were used for kinetics. 3-7 data points were used to calculate affinities.
Select G3/K53-substitution containing IL-18 variants and select G3/K53/N91-substitution containing TL-18 variants were tested for activity in the HEK-blue activity assay and for binding affinity to IL-18BP. As shown in the data of Table 15 and Table 16 below, each variant had similar or better activity than WT IL-18, and retained substantial activity in the presence of IL-18BP.

[2] = target: T2, IL-18 receptor (IL-18Rα and IL-18Rβ); test: cell-based or functional assay
[3] = target: T3, IL-18 receptors on HEK-Blue IL-18 …; test: cell-based or functional assay
[4] = target: T1, human IL-18 binding protein (IL-18BP); test: cell-based or functional assay
[5] = target: T4, interleukin 18 binding protein (IL-18BP); test: cell-based or functional assay
[6] = target: T3, IL-18 receptors on HEK-Blue IL-18 …; test: cell-based or functional assay; remark: listed apart in the source
[7] = target: T1, human IL-18 binding protein (IL-18BP); test: cell-based or functional assay; remark: listed apart in the source

Binder	Kd [1]	koff [1]	kon [1]	EC50 pM, IFN gamma expression in PBMCs [2]	HEK-Blue Ec50 (pM), -IL-18BP [3]	HEK-Blue Ec50 (pM), +IL-18BP (50 nM) [4]	Ratio (-BP/+BP), DF-1000005 [5]	Ratio (-BP/+BP), DF-5000006 [5]	Ratio (-BP/+BP), DF-25000007 [5]	HEK-Blue Ec50 (pM), -IL-18BP [6]	HEK-Blue Ec50 (pM), +IL-18BP (50 nM) [7]
IL-18 variant G3H, N91V, K53S (ligand, also called G3H/K53S/N91V) YFHKLESKLSVIRNLNDQVLFIDQGNRPLFEDMTDSDMRDNAPRTIFIISMYSDSQPRGMAVTISVKSEKISTLSSENKIISFKEMNPPDVIKDTKSDIIFFQRSVPGHDNKMQFESSSYEGYFLASEKERDLFKLILKKEDELGDRSIMFTVQNED	8.6 nM	0.0031 s⁻¹	359000 M⁻¹ s⁻¹	222 pM	0.94 pM	2.51 pM	–	–	–	–	–
IL-18 variant G3N, E6Y, K53Q, D54W, S55R, N91T, R104P (ligand) YFNKLYSKLSVIRNLNDQVLFIDQGNRPLFEDMTDSDMRDNAPRTIFIISMYQWRQPRGMAVTISVKSEKISTLSSENKIISFKEMNPPDTIKDTKSDIIFFQPSVPGHDNKMQFESSSYEGYFLASEKERDLFKLILKKEDELGDRSIMFTVQNED	–	–	–	–	–	–	1.02	0.93	1.03	–	–
IL-18 variant G3E, E6A, K53Q, D54W, S55V, T63M, N91M, R104N (ligand) YFEKLASKLSVIRNLNDQVLFIDQGNRPLFEDMTDSDMRDNAPRTIFIISMYQWVQPRGMAVMISVKSEKISTLSSENKIISFKEMNPPDMIKDTKSDIIFFQNSVPGHDNKMQFESSSYEGYFLASEKERDLFKLILKKEDELGDRSIMFTVQNED	–	–	–	–	–	–	0.97	1.03	0.99	–	–
IL-18 variant G3T, K53S (ligand) YFTKLESKLSVIRNLNDQVLFIDQGNRPLFEDMTDSDMRDNAPRTIFIISMYSDSQPRGMAVTISVKSEKISTLSSENKIISFKEMNPPDNIKDTKSDIIFFQRSVPGHDNKMQFESSSYEGYFLASEKERDLFKLILKKEDELGDRSIMFTVQNED	18 nM	0.00474 s⁻¹	263000 M⁻¹ s⁻¹	368 pM	–	–	–	–	–	2.5 pM	5.18 pM
